Measured values published in US6475744 (GENERAL HOSPITAL CORPORATION A MASSACHUSETTS, dated 2002).

B1: mTIM-V5 (other, not shown: small tags and cut ends)
chain: MDLYMMNCELLATCSALGYLEGGTYHKEPDCLESVKDLIRYLRHEDETRDVRQQLGAAQILQSDLLPILTQHRQDKPLFDAVIRLMVNLTQPALLCFGSVPKDSSVRHHFLQVLTYLQAYKEAFASEKAFGVLSETLYELLQLGWEDRQEEDNLLIERILLLVRNILHVPANLEQEKSIDDDASIHDRLLWAIHLSGMDDLLLFLSSSSAEQQWSLHVLEIISLMFRDQTPEQLAGVGQGRLAQERSTDVAELEVLRQREMAEKRARALQRGNRHSRFGGSYIVQGLKSIGEKDVVFHKGLHNLQNYSSDLGKQPRRVPKRRQAAQELSVHRRSVLNVRLFLRDFCSEFLENCYNPLMGAVKDHLLRERAQQHDETYYMWAMAFFMAFNRAATFRPGLVSETLSIRTFHFVEQNLTNYYEMMLTDRKEAASWARRMHLALKAYQELLATVNEMDMCPDEAVRESSRIIKNNIFYMMEYRELFLALFRKFDERYHPRSFLRDLVETTHLFLKMLERFCRSRGNLMVQNKRKKRKKKKKVQDQGVAFSQSPGELEAMWPALAEQLLQCAQDPELSVDPVVPFDAASEVPVEEQRVEAMVRIQDCLTAGQAPQALALLRSAREVWPEGNAFGSPVISPGEEMQLLKQILSTPLPRQQEPEEGDAEEEEEEEEEEELQVVQVSEKEFNFLEYLKRFASSTIVRAYVLLLRSYRQNSAHTNHCIAKMLHRLAHGLGMEALLFQLSLFCLFNRLLSDPAAAAYKELVTFAKYIIGKFFALAAVNQKAFVELLFWKNTAVVREMTQGYGSLDSGSSSHRAPLWSPEEEAQLQELYLAHKDVEGQDVVETILAHLKVVPRTRKQVIHHLVRMGLADSVKEFQKRKGTQIVLWTEDQELELQRLFEEFRDSDDVLGQIMKNITAKRSRARVVDKLLALGLVSERRQLYKKRRKKLAPSCMQNGEKSPRDPWQEDPEEEDEHLPEDESEDEESEEGLPSGQGQGSSSLSAENLGESLRQEGLSAPLLWLQSSLIRAANDREEDGCSQAIPLVPLTEENEEAMENEQFQHLLRKLGIRPPSSGQETFWRIPAKLSSTQLRRVAASLSQQENEEEREEEPEPGVPGEQGPSEEHRTEALRALLSARKRKAGLGPTEEEATGEEEWNSAPKKRQLLDSDEEEDDEGRRQAVSGTPRVHRKKRFQIEDEDD
notes: the construct was made from the coding region of AF071506; Printed once as 'mTIM-VS', read as V5; also called mTIM-VS

What was measured:
CYC (Drosophila) = CYC (Drosophila) (UniProt O61734); experiment: cell-based or functional assay
Sequence of CYC (Drosophila) (O61734 whole entry): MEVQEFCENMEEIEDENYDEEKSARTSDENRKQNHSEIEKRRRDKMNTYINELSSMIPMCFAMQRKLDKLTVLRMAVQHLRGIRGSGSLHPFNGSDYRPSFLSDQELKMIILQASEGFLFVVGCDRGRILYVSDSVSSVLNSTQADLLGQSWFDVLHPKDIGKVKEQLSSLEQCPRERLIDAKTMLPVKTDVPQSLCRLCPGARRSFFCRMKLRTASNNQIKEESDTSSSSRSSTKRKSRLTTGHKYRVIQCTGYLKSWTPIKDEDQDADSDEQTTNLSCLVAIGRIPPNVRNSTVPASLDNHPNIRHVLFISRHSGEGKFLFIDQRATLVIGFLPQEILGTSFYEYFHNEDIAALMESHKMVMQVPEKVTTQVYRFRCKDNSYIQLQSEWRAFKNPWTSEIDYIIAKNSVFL

syrian hamster (sh)BMAL1 = syrian hamster (sh)BMAL1 (syrian hamster, UniProt O88529 1-626); experiment: cell-based or functional assay
Sequence of syrian hamster (sh)BMAL1 (O88529 whole entry): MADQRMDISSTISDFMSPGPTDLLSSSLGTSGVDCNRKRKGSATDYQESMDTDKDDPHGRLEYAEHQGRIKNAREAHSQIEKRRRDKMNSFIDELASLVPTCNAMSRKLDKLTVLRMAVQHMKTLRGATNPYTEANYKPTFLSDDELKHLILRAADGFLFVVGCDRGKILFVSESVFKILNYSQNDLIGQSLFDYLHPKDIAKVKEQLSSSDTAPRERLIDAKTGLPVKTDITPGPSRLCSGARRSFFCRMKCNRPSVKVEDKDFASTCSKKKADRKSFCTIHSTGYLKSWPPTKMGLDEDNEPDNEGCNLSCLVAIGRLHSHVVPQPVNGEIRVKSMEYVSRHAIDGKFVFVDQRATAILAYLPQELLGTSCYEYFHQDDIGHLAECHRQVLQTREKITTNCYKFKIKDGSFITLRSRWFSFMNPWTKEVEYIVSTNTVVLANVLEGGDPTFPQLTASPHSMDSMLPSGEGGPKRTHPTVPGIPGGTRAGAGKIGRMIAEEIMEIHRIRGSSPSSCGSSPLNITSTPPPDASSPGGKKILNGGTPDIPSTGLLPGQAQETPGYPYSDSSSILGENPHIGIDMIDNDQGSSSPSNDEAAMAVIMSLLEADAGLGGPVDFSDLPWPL

mPER1-HA = target: T1, mPER1-HA (mouse, UniProt O35973 1-1291); experiment: co-immunoprecipitation from co-transfected COS7 cells, anti-HA IP, anti-V5 blot
T1 construct: Expressed in COS7 cells; used in place of mPER3-HA in co-immunoprecipitation
T1 sequence (O35973 whole entry): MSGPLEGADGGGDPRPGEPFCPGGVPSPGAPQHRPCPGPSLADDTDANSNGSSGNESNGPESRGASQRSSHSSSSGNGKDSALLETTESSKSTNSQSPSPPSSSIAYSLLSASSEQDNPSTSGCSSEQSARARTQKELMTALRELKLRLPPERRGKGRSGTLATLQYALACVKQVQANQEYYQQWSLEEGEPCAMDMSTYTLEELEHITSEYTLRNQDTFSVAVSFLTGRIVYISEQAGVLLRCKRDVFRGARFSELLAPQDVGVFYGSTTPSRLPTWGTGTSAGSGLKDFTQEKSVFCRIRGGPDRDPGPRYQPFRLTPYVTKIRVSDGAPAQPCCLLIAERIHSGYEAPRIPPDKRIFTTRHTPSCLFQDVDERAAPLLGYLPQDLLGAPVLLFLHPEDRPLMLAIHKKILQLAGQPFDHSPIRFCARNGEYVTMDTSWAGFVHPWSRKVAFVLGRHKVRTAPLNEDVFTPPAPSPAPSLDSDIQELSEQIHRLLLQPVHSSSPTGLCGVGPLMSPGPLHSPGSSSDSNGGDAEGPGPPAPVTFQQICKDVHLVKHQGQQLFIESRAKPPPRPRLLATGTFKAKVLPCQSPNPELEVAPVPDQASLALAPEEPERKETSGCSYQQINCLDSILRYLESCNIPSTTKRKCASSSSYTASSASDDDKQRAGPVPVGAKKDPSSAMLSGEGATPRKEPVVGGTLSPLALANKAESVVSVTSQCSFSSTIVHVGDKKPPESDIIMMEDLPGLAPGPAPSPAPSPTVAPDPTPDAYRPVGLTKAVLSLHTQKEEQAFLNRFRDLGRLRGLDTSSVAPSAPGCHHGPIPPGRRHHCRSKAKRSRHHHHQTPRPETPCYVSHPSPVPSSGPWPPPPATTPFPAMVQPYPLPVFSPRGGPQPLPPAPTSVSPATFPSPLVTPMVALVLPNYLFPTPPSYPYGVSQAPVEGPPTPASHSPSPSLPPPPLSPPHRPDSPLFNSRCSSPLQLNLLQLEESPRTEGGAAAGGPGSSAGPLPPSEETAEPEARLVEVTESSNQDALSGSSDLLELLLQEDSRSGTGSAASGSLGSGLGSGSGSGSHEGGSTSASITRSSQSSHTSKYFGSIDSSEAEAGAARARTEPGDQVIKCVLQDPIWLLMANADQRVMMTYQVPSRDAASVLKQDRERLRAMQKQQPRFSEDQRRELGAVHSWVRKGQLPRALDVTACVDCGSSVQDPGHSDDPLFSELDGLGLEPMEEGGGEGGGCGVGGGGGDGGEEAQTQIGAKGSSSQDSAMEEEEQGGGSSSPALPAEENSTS
Procedure: (§1) Subsequently, the beads were washed four times (400 μl binding buffer for 10 min. per wash), mixed with 5 μl of 4×sodium dodecyl sulfate (SDS) gel loading buffer, boiled, and centrifuged. The supernatant was analyzed by SDS-polyacrylamide gel electrophoresis (PAGE) and western blotted as follows. Total protein (5 μg) from COS7 cells was extracted as described above, separated by SDS-PAGE, and transferred to a nitrocellulose membrane using a semi-dry blotting apparatus. Membranes were blocked with 5% non-fat milk. Blots were incubated with either the mouse anti-HA antibody (1:10,000) or the mouse anti-V5 antibody (1:5,000) overnight at 4EC. A goat anti-mouse horseradish peroxidase secondary antibody (1:10,000) was used in combination with enhanced chemiluminescence (NEN) to detect proteins.
(§2) Following detection of epitope-tagged proteins with one antibody, the blots were stripped in stripping buffer (62.5 mM Tris-HCl (pH 6.7), 100 mM 2-mercaptoethanol, 2% SDS) at 50EC for 30 minutes. The membrane was washed extensively (20 mM Tris, pH 7.6, 137 mM NaCl, 0.05% Tween-20) then blocked again and processed for detection of the second epitope-tagged protein.

mTIM-V5 = target: B1; experiment: as above
Procedure: as §1, §2

Row | transcriptional activation (vasopressin promoter luciferase reporter, NIH3T3 cells) (syrian hamster (sh)BMAL1) | transcriptional activity (per E box luciferase reporter, S2 cells) (syrian hamster (sh)BMAL1) | Molecule | other results
1 | – | – | dCLOCK (from UniProt O61735 1-1027) | transcriptional activity (per E box luciferase reporter, S2 cells) (CYC (Drosophila)): 265 fold
2 | 10 fold increase | 1740 fold | mCLOCK (other, mouse, UniProt O08785 1-855, looked up) MVFTVSCSKMSSIVDRDDSSIFDGLVEEDDKDKAKRVSRNKSEKKRRDQFNVLIKELGSMLPGNARKMDKSTVLQKSIDFLRKHKETTAQSDASEIRQDWKPTFLSNEEFTQLMLEALDGFFLAIMTDGSIIYVSESVTSLLEHLPSDLVDQSIFNFIPEGEHSEVYKILSTHLLESDSLTPEYLKSKNQLEFCCHMLRGTIDPKEPSTYEYVRFIGNFKSLTSVSTSTHNGFEGTIQRTHRPSYEDRVCFVATVRLATPQFIKEMCTVEEPNEEFTSRHSLEWKFLFLDHRAPPIIGYLPFEVLGTSGYDYYHVDDLENLAKCHEHLMQYGKGKSCYYRFLTKGQQWIWLQTHYYITYHQWNSRPEFIVCTHTVVSYAEVRAERRRELGIEESLPETAADKSQDSGSDNRINTVSLKEALERFDHSPTPSASSRSSRKSSHTAVSDPSSTPTKIPTDTSTPPRQHLPAHEKMTQRRSSFSSQSINSQSVGPSLTQPAMSQAANLPIPQGMSQFQFSAQLGAMQHLKDQLEQRTRMIEANIHRQQEELRKIQEQLQMVHGQGLQMFLQQSNPGLNFGSVQLSSGNSNIQQLTPVNMQGQVVPANQVQSGHISTGQHMIQQQTLQSTSTQQSQQSVMSGHSQQTSLPSQTPSTLTAPLYNTMVISQPAAGSMVQIPSSMPQNSTQSATVTTFTQDRQIRFSQGQQLVTKLVTAPVACGAVMVPSTMLMGQVVTAYPTFATQQQQAQTLSVTQQQQQQQQQPPQQQQQQQQSSQEQQLPSVQQPAQAQLGQPPQQFLQTSRLLHGNPSTQLILSAAFPLQQSTFPPSHHQQHQPQQQQQLPRHRTDSLTDPSKVQPQ | –
3 | – | – | B1 | binding result (mPER1-HA): no binding
4 | 37 fold increase | 539 fold | human (h)MOP4 (other, UniProt Q99743 1-824, looked up) MDEDEKDRAKRASRNKSEKKRRDQFNVLIKELSSMLPGNTRKMDKTTVLEKVIGFLQKHNEVSAQTEICDIQQDWKPSFLSNEEFTQLMLEALDGFIIAVTTDGSIIYVSDSITPLLGHLPSDVMDQNLLNFLPEQEHSEVYKILSSHMLVTDSPSPEYLKSDSDLEFYCHLLRGSLNPKEFPTYEYIKFVGNFRSYNNVPSPSCNGFDNTLSRPCRVPLGKEVCFIATVRLATPQFLKEMCIVDEPLEEFTSRHSLEWKFLFLDHRAPPIIGYLPFEVLGTSGYDYYHIDDLELLARCHQHLMQFGKGKSCCYRFLTKGQQWIWLQTHYYITYHQWNSKPEFIVCTHSVVSYADVRVERRQELALEDPPSEALHSSALKDKGSSLEPRQHFNTLDVGASGLNTSHSPSASSRSSHKSSHTAMSEPTSTPTKLMAEASTPALPRSATLPQELPVPGLSQAATMPAPLPSPSSCDLTQQLLPQTVLQSTPAPMAQFSAQFSMFQTIKDQLEQRTRILQANIRWQQEELHKIQEQLCLVQDSNVQMFLQQPAVSLSFSSTQRPEAQQQLQQRSAAVTQPQLGAGPQLPGQISSAQVTSQHLLRESSVISTQGPKPMRSSQLMQSSGRSGSSLVSPFSSATAALPPSLNLTTPASTSQDASQCQPSPDFSHDRQLRLLLSQPIQPMMPGSCDARQPSEVSRTGRQVKYAQSQTVFQNPDAHPANSSSAPMPVLLMGQAVLHPSFPASQPSPLQPAQARQQPPQHYLQVQAPTSLHSEQQDSLLLSTYSQQPGTLGYPQPPPAQPQPLRPPRRVSSLSESSGLQQPPR | –
5 | – | – | mPER3-HA (other, mouse, UniProt O70361 1-1113, looked up, not shown: small tags and cut ends, Expressed in COS7 cells from pcDNA 3.1; immunoprecipitated with anti-HA antibody) MDPCGDPAVPGGDCPQTRGPGLQGASGQEGPLQGTCVDSSHSEHEDRNRMSEELIMVVQEMKKYFPAERHTKPSTLDALNYALRCVHSVQANSDFFQSLGPRGAHQADVTVYSLEDLTALASEHTSKNTDTFAAVFSFLSGRLVHISEQAALILNSKRGFLKSVHFVDLLAPQDVRAFYAHTAPTQLPFWNNWTQRASQYECAPAKPFFCRICGGGDREKRHYSPFRILPYLVHVHSSAQPEPEPCCLTLVEKIHSGYEAPRIPVDKRIFTTTHTPGCVFLEVDERAVPLLGYLPQDLIGTSILTYLHPEDRPLMVAIHQKVLKYAGHPPFEHSPVRFCTQNGEYVILDSSWSSFVNPWSRKVSFIIGRHKVRTSPLNEDVFATRIKKAASNDKDIAELQEQIHKLLLQPVHASASSGYGSLGSSGSQEQHVSITSSSESSGHCPEEGQHEQMTLQQVYASVNKIKNVGQQLYIESMARSSVKPVAETCVEPQGGDEQKDFSSSQTLKNKSTTDTGSGGNLQQEQPSSSYQQMNCIDSVIRYLTSYSLPALKRKCISCTNTSSSSEEAKPIPEVDSSQRDTEQLLDIRKQETTGPSTDIEGGAARTLSTAALSVASGISQCSCSSTSGHAPPLQSESVAVACKPWALRTKASHLAAGGFKHVGLTAAVLSAHTQKEEQNYVDRFREKILTSPYGCYLQQESRNRAQYSCVQAGSTAKHSRCAGSERQKHKRKKLPAPVDTSSPGAHLCPHVTGLLPDEQHWGPSASPSPLGAGLAFPSALVVPSQTPYLLPSFPLQDMASQGVGVSAAWGAAAGCPPLSAGPQAVAAFPSAYVDTLMTIFLHNAPLFPLWPPSFSPYPSLGAAGSSELAPLVPAMAPNPEPTTSGHSQRRVEENWEAHSEELPFISSRSSSPLQLNLLQEEMPAPSESADAVRRGAGPDAKHHCVTGPSGSRSRHCTSGELATATAQQESAAASGSSASSIYFSSTDYASEVSENRQRPQDRQRDEALPGAAEESIWRMIERTPECVLMTYQVPERGREEVLKQDLEKLQSMEQQQPLFSPAQREELAKVRSWIHSHTAPQEGHLQSCVACEDRGSVGDTAEVLEQHPAEDTS | binding result (mTIM-V5): no binding
